Test results reported in paper PMC5028754 (2016).

B1: full-length yeast Ddi1 (natural protein)
chain: MDLTISNELTGEIYGPIEVSEDMALTDLIALLQADCGFDKTKHDLYYNMDILDSNRTQSLKELGLKTDDLLLIRGKISNSIQTDAATLSDEAFIEQFRQELLNNQMLRSQLILQIPGLNDLVNDPLLFRERLGPLILQRRYGGYNTAMNPFGIPQDEYTRLMANPDDPDNKKRIAELLDQQAIDEQLRNAIEYTPEMFTQVPMLYINIEINNYPVKAFVDTGAQTTIMSTRLAKKTGLSRMIDKRFIGEARGVGTGKIIGRIHQAQVKIETQYIPCSFTVLDTDIDVLIGLDMLKRHLACVDLKENVLRIAEVETSFLSEAEIPKSFQEGLPAPTSVTTSSDKPLTPTKTSSTLPPQPGAVPALAPRTGMGPTPTGRSTAGATTATGRTFPEQTIKQLMDLGFPRDAVVKALKQTNGNAEFAASLLFQ
B2: Ddi1 RVP-UBA (180-428) (domain or fragment)
chain: QQAIDEQLRNAIEYTPEMFTQVPMLYINIEINNYPVKAFVDTGAQTTIMSTRLAKKTGLSRMIDKRFIGEARGVGTGKIIGRIHQAQVKIETQYIPCSFTVLDTDIDVLIGLDMLKRHLACVDLKENVLRIAEVETSFLSEAEIPKSFQEGLPAPTSVTTSSDKPLTPTKTSSTLPPQPGAVPALAPRTGMGPTPTGRSTAGATTATGRTFPEQTIKQLMDLGFPRDAVVKALKQTNGNAEFAASLLFQ
B3: Ddi1 UBL-RVP (1-325) (domain or fragment)
chain: MDLTISNELTGEIYGPIEVSEDMALTDLIALLQADCGFDKTKHDLYYNMDILDSNRTQSLKELGLKTDDLLLIRGKISNSIQTDAATLSDEAFIEQFRQELLNNQMLRSQLILQIPGLNDLVNDPLLFRERLGPLILQRRYGGYNTAMNPFGIPQDEYTRLMANPDDPDNKKRIAELLDQQAIDEQLRNAIEYTPEMFTQVPMLYINIEINNYPVKAFVDTGAQTTIMSTRLAKKTGLSRMIDKRFIGEARGVGTGKIIGRIHQAQVKIETQYIPCSFTVLDTDIDVLIGLDMLKRHLACVDLKENVLRIAEVETSFLSEAEIPK

How the values were obtained:
bovine ubiquitin [1] = target: T1, bovine ubiquitin (bovine, UniProt P0CG53 1-76); assay: ITC; one-site model, N=2
bovine ubiquitin [2] = target: T1, bovine ubiquitin; assay: ITC

Binder	Ka (bovine ubiquitin [1])	Ka (bovine ubiquitin [2])
B1	3160 M⁻¹	
B2		23400 M⁻¹
B3		3190 M⁻¹
